According to patent US20230203162A1 (NUMAB THERAPEUTICS, published 2023):

Tests used:
[1] = target: T1, human serum albumin (hSA, Sigma-Aldrich A3782) (human, UniProt P02768 25-609); assay: SPR, albumin immobilized on CM5, scFv as analyte, multi-cycle, 1:1 Langmuir, pH 5.5
[2] = target: T2, cynomolgus monkey serum albumin (cSA, Molecular Innovations CYSA) (cynomolgus monkey); assay: as above
[3] = target: T3, mouse serum albumin (mSA, Sigma-Aldrich A3559) (mouse, UniProt P07724 25-608); assay: as above
[4] = target: T1, human serum albumin (hSA, Sigma-Aldrich …); assay: SPR, albumin immobilized on CM5, scFv as analyte, multi-cycle, 1:1 Langmuir, pH 7.4
[5] = target: T2, cynomolgus monkey serum albumin (cSA, …); assay: as above
[6] = target: T3, mouse serum albumin (mSA, Sigma-Aldrich …); assay: as above
[7] = target: T3, mouse serum albumin (mSA, Sigma-Aldrich …); assay: SPR, albumin immobilized on CM5, scFv as analyte, 1:1 fit, pH 5.5; biphasic binding corrected with bulk correction
[8] = target: T3, mouse serum albumin (mSA, Sigma-Aldrich …); assay: SPR, albumin immobilized on CM5, scFv as analyte, 1:1 fit, pH 7.4; biphasic binding corrected with bulk correction

Kd [1]: 3.3 nM | koff [1]: 0.003 s⁻¹ | kon [1]: 900000 M⁻¹ s⁻¹ | Kd [2]: 2.3 nM | koff [2]: 0.0021 s⁻¹ | kon [2]: 910000 M⁻¹ s⁻¹ | koff [3]: 0.0002 s⁻¹ | kon [3]: 78000 M⁻¹ s⁻¹ | Kd [4]: 2.2 nM | koff [4]: 0.0012 s⁻¹ | kon [4]: 550000 M⁻¹ s⁻¹ | Kd [5]: 1.6 nM | koff [5]: 0.00091 s⁻¹ | kon [5]: 580000 M⁻¹ s⁻¹ | koff [6]: 0.00029 s⁻¹ | kon [6]: 32000 M⁻¹ s⁻¹ | Kd [7]: 2.5 nM | Kd [8]: 9 nM
B1: anti-hSA scFv PRO2155 (domain 19-04-A10-sc02) (scFv, V domains shown)
VH: EVQLVESGGGLVQPGGSLRLSCAASGFSLSSYAMNWVRQAPGKGLEWIGHINAGDIAYYATWAKGRFTISRDNSKNTVYLQMNSLRAEDTAVYFCARGAGGFSTGPFKLWGQGTLVTVSS
VL: AFELTQSPSSLSASVGDRVTITCQASESINSRLAWYQQKPGQPPKLLIYDASDLTSGVPSRFSGSGSGTDFTLTISSLQPEDFATYYCQGYGGSSTTTFGGGTKLTVLG
notes: Tested as scFv
